Patent US8540999B2, “Allergenic proteins and peptides from Japanese cedar pollen” (Merck Patent GmbH, priority 1991, dated 2013)

Legend:
Cry j I reactive T cells [1] = assay: T cell proliferation assay, Cry j I primed T cell lines (Example 6); format: cell-based, human
Description: Viable cells were purified by LSM centrifugation and cultured in complete medium supplemented with 5 units recombinant human IL-2/ml and 5 units recombinant human IL-4/ml for up to three weeks until the cells no longer responded to lymphokines and were considered “rested”. The ability of the T cells to proliferate to selected peptides, recombinant Cry j I (rCry j I), purified native Cry j I, or recombinant Amb aI.1 (rAmb aI.1) or a positive control, phyto-hemaglutinin (PHA) was then assessed. For assay, 2×10^4 rested cells were restimulated in the presence of 2×10^4 autologous Epstein-Barr virus (EBV)-transformed B cells (prepared as described below) (gamma-irradiated with 25,000 RADS) with 2-50 μg/ml of selected peptides, Cry j I, purified native Cry j I or rAmb a I.1 or PHA, in a volume of 200 μl complete medium in duplicate or triplicate wells in 96-well round bottom plates for 2-4 days. […] Each well then received 1 μCi tritiated thymidine for 16-20 hours. The counts incorporated were collected onto glass fiber filter mats and processed for liquid scintillation counting. […] The titrations were used to optimize the dose of peptides in T cell assays. The maximum response in a titration of each peptide is expressed as the stimulation index (S.I.). The S.I. is the counts per minute (CPM) incorporated by cells in response to peptide, divided by the CPM incorporated by cells in medium only.
The above procedure was followed with a number of other patients. […] The bars represent the positivity index. Above each bar is the percent of positive responses with an S.I. of at least two to the peptide or protein in the group of patients tested. In parenthesis above each bar are the mean stimulation indices for each peptide or protein for the group of patients tested.
Autologous EBV-transformed cell lines were y-irradiated with 25,000 Rad and used as antigen presenting cells in secondary proliferation assays and secondary bulk stimulations. These EBV-transformed cell lines were made by incubating 5×10^6 PBL with 1 ml of B-59/8 Marmoset cell line (ATCC CRL1612, American Type Culture Collection, Rockville, Md.) conditioned medium in the presence of 1 μg/ml phorbol 12-myristate 13-acetate (PMA) at 37° C. for 60 minutes in 12×75 mm polypropylene round-bottom Falcon snap cap tubes (Becton Dickinson Labware, Lincoln Park, N.J.). These cells were then diluted to 1.25×10^6 cells/ml in RPMI-1640 as described above except supplemented with 10% heat-inactivated fetal bovine serum and cultured in 200 μl aliquots in flat bottom culture plates until visible colonies were detected. They were then transferred to larger wells until the cell lines were established.

allergic patient IgE = assay: Competition ELISA, wells coated with Japanese cedar pollen SPE; format: binding, human
Description: In the competition assay, ELISA wells were coated with Japanese cedar pollen SPE and then allergic patient IgE binding was measured in the presence of competing purified native Cry j I in solution. The source of allergic IgE in these assays was either the pool of plasma from 15 patients (denoted PHP) or seven individual plasma samples from patients with a Japanese cedar MAST score of 2.5 or greater. The competition assay using the pooled human plasma samples compares the competitive binding capacity of purified native Cry j I to Japanese cedar pollen SPE and an irrelevant allergen source, rye grass SPE. […] This assay was repeated with individual patients as a measure of the range of the IgE response within the allergic population.

Cry j I reactive T cells [2] = assay: T cell proliferation assay, Cry j I primed T cell lines, modified peptides (Example 11); format: cell-based, human; settings: panel of thirty-nine patients, FIG. 21
Description: Long term T cell lines were established by stimulation of 2×10^6 PBL/ml in bulk cultures of complete medium (RPMI-1640, 2 mM L-glutamine, 100 U/ml penicillin/streptomycin, 5×10^−5M 2-mercaptoethanol, and 10 mM HEPES supplemented with 5% heat inactivated human AB serum) with 20 μg/ml of partially purified native Cry j I (75% purity containing three bands similar to the three bands in FIG. 2) for 6 days at 37° C. in a humidified 5% CO2 incubator to select for Cry j I reactive T cells. This amount of priming antigen was determined to be optimal for the activation of T cells from most cedar pollen allergic patients. Viable cells were purified by LSM centrifugation and cultured in complete medium supplemented with 5 units recombinant human IL-2/ml and 5 units recombinant human IL4/ml for up to three weeks until the cells no longer responded to lymphokines and were considered “rested”. The ability of the T cells to proliferate to selected Cry j I peptides, partially purified Cry j I, affinity purified Cry j I, or positive (PHA) controls or negative controls (medium only) was then assessed. […]
The maximum response in a titration of each peptide is expressed as the stimulation index (S.I.). […]

competition for IgE binding to coated Japanese cedar pollen SPE (allergic patient IgE; pooled human plasma (PHP), 15 patients, FIG. 6): competes very well | competition for IgE binding to coated Japanese cedar pollen SPE (allergic patient IgE; seven individual patients, FIG. 7): could be competed
B1: purified native Cry j I: major allergen of Japanese cedar pollen, biochemically purified in the native form (protein)
chain: DNPIDSCWRGDSNWAQNRMKLADCAVGFGSSTMGGKGGDLYTVTNSDDDPVNPAPGTLRYGATRDRPLWIIFSGNMNIKLKMPMYIAGYKTFDGRGAQVYIGNGGPCVFIKRVSNVIIHGLYLYGCSTSVLGNVLINESFGVEPVHPQDGDALTLRTATNIWIDHNSFSNSSDGLVDVTLTSTGVTISNNLFFNHHKVMLLGHDDAYSDDKSMKVTVAFNQFGPNCGQRMPRARYGLVHVANNNYDPWTIYAIGGSSNPTILSEGNSFTAPNESYKKQVTIRIGCKTSSSCSNWVWQSTQDVFYNGAYFVSSGKYEGGNIYTKKEAFNVENGNATPQLTKNAGVLTCSLSKRC
T cell line response (Cry j I reactive T cells [1]; panel of twenty-five patients, FIG. 14): All twenty-five T cell lines responded | T cell proliferative response (Cry j I reactive T cells [1]; patient #999, FIG. 12): responds well | T cell line response (Cry j I reactive T cells [2]): All but one of the thirty-nine T cell lines responded
